Source: article PMC3951439 (Science (New York, N.Y.), 2013)

Target: PRC2 (Homo sapiens, UniProt Q15910)
Test: PRC2 histone methyltransferase assay on nucleosomes
Assay type: biochemical
Details: peptide titration, µM concentrations; fluorography (Fig. 3E, fig. S3, D and E)

Chain of PRC2 (Q15910 whole entry): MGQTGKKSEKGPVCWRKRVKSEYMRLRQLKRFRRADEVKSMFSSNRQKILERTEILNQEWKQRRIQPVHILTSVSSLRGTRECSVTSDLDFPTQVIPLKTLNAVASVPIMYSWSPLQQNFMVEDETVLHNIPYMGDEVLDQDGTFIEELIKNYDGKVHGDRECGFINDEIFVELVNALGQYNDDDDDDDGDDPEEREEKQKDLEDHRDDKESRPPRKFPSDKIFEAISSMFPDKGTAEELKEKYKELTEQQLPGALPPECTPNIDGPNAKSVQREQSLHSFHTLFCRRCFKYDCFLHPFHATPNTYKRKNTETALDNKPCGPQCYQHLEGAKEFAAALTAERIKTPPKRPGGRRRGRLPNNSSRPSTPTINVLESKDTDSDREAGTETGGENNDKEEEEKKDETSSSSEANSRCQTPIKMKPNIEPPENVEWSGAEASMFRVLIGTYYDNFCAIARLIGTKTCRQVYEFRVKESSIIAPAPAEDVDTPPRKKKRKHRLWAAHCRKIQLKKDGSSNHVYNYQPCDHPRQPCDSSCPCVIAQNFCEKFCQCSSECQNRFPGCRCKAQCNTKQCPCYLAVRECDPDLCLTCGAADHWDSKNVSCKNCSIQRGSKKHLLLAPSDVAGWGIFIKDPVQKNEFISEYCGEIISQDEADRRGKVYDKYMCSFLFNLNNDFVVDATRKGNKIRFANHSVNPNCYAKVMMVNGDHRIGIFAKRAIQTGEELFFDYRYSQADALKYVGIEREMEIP
Chain of PRC2 (O75530 whole entry partner): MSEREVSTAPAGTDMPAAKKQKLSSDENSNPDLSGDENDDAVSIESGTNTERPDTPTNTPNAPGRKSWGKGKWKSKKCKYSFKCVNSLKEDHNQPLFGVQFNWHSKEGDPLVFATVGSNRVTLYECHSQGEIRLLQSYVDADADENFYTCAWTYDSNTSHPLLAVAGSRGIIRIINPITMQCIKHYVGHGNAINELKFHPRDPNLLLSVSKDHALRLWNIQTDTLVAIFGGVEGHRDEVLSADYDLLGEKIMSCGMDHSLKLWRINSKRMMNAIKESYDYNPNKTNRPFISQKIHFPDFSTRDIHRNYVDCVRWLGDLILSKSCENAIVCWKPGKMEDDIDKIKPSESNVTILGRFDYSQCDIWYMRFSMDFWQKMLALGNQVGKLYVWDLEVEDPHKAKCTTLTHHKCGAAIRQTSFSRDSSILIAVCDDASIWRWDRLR
Chain of PRC2 (Q6ZN18 whole entry partner): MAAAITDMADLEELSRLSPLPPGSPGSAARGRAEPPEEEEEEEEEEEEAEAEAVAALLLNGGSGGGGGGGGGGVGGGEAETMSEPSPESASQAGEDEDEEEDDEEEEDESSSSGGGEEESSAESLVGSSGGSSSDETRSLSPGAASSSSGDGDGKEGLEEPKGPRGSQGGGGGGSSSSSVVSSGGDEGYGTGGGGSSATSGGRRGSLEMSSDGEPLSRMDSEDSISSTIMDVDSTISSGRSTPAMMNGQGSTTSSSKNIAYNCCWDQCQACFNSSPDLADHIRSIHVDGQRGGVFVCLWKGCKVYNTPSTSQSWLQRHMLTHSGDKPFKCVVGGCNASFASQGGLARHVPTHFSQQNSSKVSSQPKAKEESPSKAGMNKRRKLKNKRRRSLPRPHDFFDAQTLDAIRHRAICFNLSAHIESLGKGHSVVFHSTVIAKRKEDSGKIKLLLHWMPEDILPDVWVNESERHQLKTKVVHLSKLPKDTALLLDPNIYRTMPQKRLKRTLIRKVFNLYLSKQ
Chain of PRC2 (Q15022 whole entry partner): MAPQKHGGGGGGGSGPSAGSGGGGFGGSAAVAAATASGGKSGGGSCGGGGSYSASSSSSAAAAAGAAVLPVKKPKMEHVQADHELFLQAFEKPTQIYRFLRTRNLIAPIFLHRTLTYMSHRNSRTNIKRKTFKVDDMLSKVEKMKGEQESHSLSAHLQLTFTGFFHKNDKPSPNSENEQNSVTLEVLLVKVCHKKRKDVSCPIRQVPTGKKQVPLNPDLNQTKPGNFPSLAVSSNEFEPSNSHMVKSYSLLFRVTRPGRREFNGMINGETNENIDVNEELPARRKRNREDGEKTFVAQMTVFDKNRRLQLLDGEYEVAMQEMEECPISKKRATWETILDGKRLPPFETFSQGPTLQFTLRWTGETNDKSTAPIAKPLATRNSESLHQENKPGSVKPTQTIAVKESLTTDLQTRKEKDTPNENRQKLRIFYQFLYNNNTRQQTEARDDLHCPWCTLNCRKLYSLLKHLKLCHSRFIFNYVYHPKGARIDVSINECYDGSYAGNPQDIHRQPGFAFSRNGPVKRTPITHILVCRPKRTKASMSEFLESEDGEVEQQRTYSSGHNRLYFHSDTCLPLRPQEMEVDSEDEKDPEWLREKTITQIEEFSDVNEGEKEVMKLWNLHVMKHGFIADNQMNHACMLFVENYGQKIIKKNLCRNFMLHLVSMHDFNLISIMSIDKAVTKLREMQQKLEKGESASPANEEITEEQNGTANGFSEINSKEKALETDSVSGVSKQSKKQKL
Chain of PRC2 (Q09028 whole entry partner): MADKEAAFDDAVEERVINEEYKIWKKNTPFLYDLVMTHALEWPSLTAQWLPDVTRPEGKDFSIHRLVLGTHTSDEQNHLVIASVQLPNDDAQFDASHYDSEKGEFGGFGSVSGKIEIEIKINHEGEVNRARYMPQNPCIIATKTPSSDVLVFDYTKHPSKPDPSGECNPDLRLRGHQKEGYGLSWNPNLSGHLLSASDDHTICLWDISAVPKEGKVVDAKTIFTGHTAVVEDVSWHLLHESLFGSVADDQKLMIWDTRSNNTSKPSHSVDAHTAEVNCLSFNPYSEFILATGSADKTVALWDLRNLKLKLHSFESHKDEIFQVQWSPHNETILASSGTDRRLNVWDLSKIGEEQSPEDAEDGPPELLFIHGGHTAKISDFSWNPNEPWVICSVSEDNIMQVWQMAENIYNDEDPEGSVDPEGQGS

## K27ac: H3 peptide (18 to 37) containing K27acetyl
  dose-dependent inhibition of PRC2 methyltransferase activity: not the K27ac peptide, could inhibit PRC2-dependent methyltransferase activity in a dose-dependent manner
